From patent US20100015126A1, “Methods of Binding of Cross-Beta Structures By Chaperones” (priority 2006, published 2010)

Experiments:
BiP-Sepharose = target: T1, BiP-Sepharose (Homo sapiens, UniProt P11021); test: Experiment 2: BiP-Sepharose extraction from six synovial fluid samples of RA patients and mass spectrometry; format: binding; settings: BiP-Sepharose eluate, synovial fluid of RA patient
T1 construct: The human BiP gene except the signal peptide encoding region was obtained from Geneart (Germany); linker […]; made in house; host or cells: HEK 293E cells, transient transfection, PABC674 vector; secreted into the medium
T1 sequence (P11021 19-654): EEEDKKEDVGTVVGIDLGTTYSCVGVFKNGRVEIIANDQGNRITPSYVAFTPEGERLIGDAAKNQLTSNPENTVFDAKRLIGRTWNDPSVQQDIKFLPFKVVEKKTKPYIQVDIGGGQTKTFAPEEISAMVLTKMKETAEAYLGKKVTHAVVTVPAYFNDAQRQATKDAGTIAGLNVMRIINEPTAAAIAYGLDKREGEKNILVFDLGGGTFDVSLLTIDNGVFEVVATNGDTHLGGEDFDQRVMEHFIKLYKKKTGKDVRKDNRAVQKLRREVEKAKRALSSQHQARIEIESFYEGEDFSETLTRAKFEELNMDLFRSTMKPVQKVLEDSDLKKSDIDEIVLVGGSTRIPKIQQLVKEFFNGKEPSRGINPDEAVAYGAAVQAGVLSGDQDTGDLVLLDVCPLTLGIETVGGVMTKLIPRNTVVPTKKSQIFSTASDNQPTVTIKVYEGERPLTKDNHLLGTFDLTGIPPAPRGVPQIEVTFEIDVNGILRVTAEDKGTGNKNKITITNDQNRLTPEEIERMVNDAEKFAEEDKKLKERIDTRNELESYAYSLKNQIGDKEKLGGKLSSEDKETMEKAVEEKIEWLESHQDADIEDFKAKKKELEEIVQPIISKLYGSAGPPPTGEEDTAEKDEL
Protocol: Six samples were incubated with the BiP-Sepharose, IgIV-Sepharose and the control-Sepharose: Normal pooled plasma, plasma of a patient I or of a patient II, with AL amyloidosis, serum of a patient III with RA (Rheumatoid Factor (RF) titer 682), control serum and synovial fluid of a patient IV with RA (RF titer 23). All samples were diluted 20× in HBS and applied to 200 μl beads in two volumes of 500 μl. One volume was incubated for 4 h at RT and supernatant was discarded after centrifugation (2 minutes at 1400 rpm). Subsequently, the second volume was applied to the same matrix and incubated overnight on a roller device at 4° C. […] To collect the eluates, the matrices were centrifuged and the two eluates were pooled for each sample.
Protein digests were desalted as described (Rappsilber et al., 2003), vacuum dried and dissolved in 2.5% formic acid.
For analysis of peptide mixtures, an Agilent 1100 HPLC system (Agilent Technologies) connected to a Thermo Finnigan LTQ-MS (Thermo Electron, Bremen, Germany) was used. Protein digests were injected on a trap column (Reprosil C18 RP (Dr Maisch, Germany), 20 mm×100 μm I.D.) at 5 μl/minute. Subsequently, the peptides were transferred with a split-reduced flow rate of 100 nL/minute solvent A (0.1 M acetic acid) on the analytical column (Reprosil C18 RP, 20 cm×50 μm I.D.). […] The column effluent was directly introduced into the ESI source of the mass spectrometer via a butt-connected nano-ESI emitter (New Objectives, Woburn, Mass.). The mass spectrometer was operated in the positive ion mode and parent ions were selected for fragmentation in data-dependent mode.
After mass spectrometric measurements, peak lists were generated using BioWorks software (Thermo Electron, Bremen, Germany). Protein identification was performed using Mascot software (www.matrixscience.com) by searching the IPIhuman database (version 3.24, downloaded from ftp://ftp.ebi.ac.uk/pub/databases/IPI/current) using the following settings: fully tryptic peptides, peptide tolerance 0.8 Da, MS/MS tolerance 0.9 Da, 1 missed cleavage allowed, carbamidomethyl (Cys) and oxidation (Met) as fixed and variable modification, respectively. The Scaffold software package (www.proteomesoftware.com) was used to parse the data and to filter peptides at a confidence level of 95%, allowing only protein identification with at least 2 peptides identified.
Those samples are listed below: • 1. […] One difference when compared to the protocol described above is that now with the twelve samples, elution buffer comprised 1 M NaCl. Again, a misfolded protein or a protein binding to misfolded protein is identified uniquely in the synovial fluid when no or a relatively very low number of fragments are detected in eluates of control-Sepharose.

human BiP [1] = target: T2, human BiP (Homo sapiens, UniProt P11021); test: ELISA: binding of BiP-FLAG-His to immobilized (misfolded) protein ligands; settings: ligands coated at 5 μg/ml; 6BB peptides and oxLDL 50 μg/ml
T2 construct: The human BiP gene except the signal peptide encoding region was obtained from Geneart (Germany); linker […]; made in house; host or cells: HEK 293E cells, transient transfection, PABC674 vector; secreted into the medium
T2 sequence (P11021 19-654): as above
Protocol: Enzyme Linked Immunosorbent Assay for Testing of Chaperone Binding to Misfolded Proteins
Binding of chaperones to immobilized (misfolded) protein ligands was determined using an enzyme linked immuno sorbent assay (ELISA) approach. For this purpose 50 μl/well of potential ligands at indicated concentrations or coat buffer only for control and background measurement purposes, were coated overnight at 4° C. or coated for 1 h at room temperature, with motion, in 50 mM NaHCO3 pH 9.6 (coat buffer). In general, ligands were coated at 5 μg/ml, unless stated otherwise. For example, BiP binding peptides 6BB# and oxLDL were coated at 50 μg/ml. Native haemoglobin (Sigma-Aldrich, H7379), albumin, IgIV Gammagard and ovalbumin controls were prepared from lyophilized stocks. The controls were prepared by dissolving lyophilized proteins at 1 mg/ml in PBS upon resuspending by pipetting, followed by a 30 minutes period at the roller device, at room temperature. The protein solutions were centrifuged for 10 minutes at 16,000*g and diluted in coat buffer. After coating the plates were washed at least three times with 50 mM Tris-HCl pH 7.3, 150 mM NaCl, 0.1% v/v Tween20, and blocked with Blocking reagent (Roche Diagnostics, Almere, The Netherlands; 11112589001), for 1 h at room temperature, with motion. Plates were washed three times and incubated in triplicate with indicated chaperone dilution series, at 50 μl/well, for 1 h at room temperature, with constant motion. For HSP90, 5 mM DTT is incorporated in the binding buffer (PBS/0.1% Tween20) to avoid unwanted disulfide bond formation of the HSP90. Plates were washed three times and incubated with anti-FLAG antibody (mouse antibody, M2, peroxidase conjugate; Sigma, A-8592) for BiP-FLAG-His, anti-His-tag antibody (Mouse Monoclonal Antibody, Cat. No. 70796, Novagen [0.2 mg/ml]) for HSP60, a 1:1 mix of 500-fold diluted anti-HSP90beta antibodies (Stressgen, SPA-643 [mouse monoclonal IgM], SPA-646 [rabbit polyclonal]) for HSP90 and an anti-DnaK antibody (Stressgen, 023SPA-880D [mouse monoclonal antibody]) for DnaK. After four wash cycles, secondary antibodies were added to the wells when required, 50 μl/well, for 45′ at room temperature, with motion. RAMPO and SWARPO were used at 3000 times dilution. […] In a second experiment with more immobilized misfolded proteins and controls, the detection of bound HSP90 with the mix of two anti-HSP90 antibodies was achieved by mixing 1:1500 SWARPO with 1:3000 RAMPO. After 5 washes with wash buffer followed by two washes with PBS, binding of antibodies was assessed. Bound anti-FLAG-PO, peroxidase-conjugated rabbit anti-mouse immunoglobulins (RAMPO, P0260, DAKOCytomation, Glostrup, Denmark) or peroxidase-coupled swine anti-rabbit immunoglobulins (SWARPO, P0217, DAKOCytomation) was visualized with tetramethylbenzidine (TMB, #45.01.20,/#45.014.01, Biosource, Nivelles, Belgium). The reaction was stopped after 5 minutes with 1% H2SO4 in H2O. Plates were read at 450 nm. Triplicates were averaged and standard deviations calculated. Background signals obtained with buffer-coated wells were subtracted (binding of primary antibody to empty wells), as well as background signals obtained with ligand-coated wells in which the chaperones were omitted (binding of primary and secondary antibody to coated ligands). Subsequently, sub-optimal concentrations of chaperones for binding to misfolded protein ligands are determined, and these concentrations are used for inhibition studies. […] We have previously identified that a sub-fraction of IgIV molecules has affinity for misfolded proteins comprising crossbeta structure (pending patent application). Moreover, we identified that the sub-fraction of IgIV molecules directly binds to crossbeta structure and/or crossbeta structure induced conformation (not shown; pending patent application). […]

human BiP [2] = target: T2, human BiP; test: Competition ELISA: BiP binding to misfolded proteins under influence of crossbeta binding compounds
Protocol: Binding of chaperones to immobilized (misfolded) protein ligands was determined using an enzyme linked immuno sorbent assay (ELISA) approach. For this purpose 50 μl/well of potential ligands at indicated concentrations or coat buffer only for control and background measurement purposes, were coated overnight at 4° C. or coated for 1 h at room temperature, with motion, in 50 mM NaHCO3 pH 9.6 (coat buffer). In general, ligands were coated at 5 μg/ml, unless stated otherwise. For example, BiP binding peptides 6BB# and oxLDL were coated at 50 μg/ml. Native haemoglobin (Sigma-Aldrich, H7379), albumin, IgIV Gammagard and ovalbumin controls were prepared from lyophilized stocks. The controls were prepared by dissolving lyophilized proteins at 1 mg/ml in PBS upon resuspending by pipetting, followed by a 30 minutes period at the roller device, at room temperature. The protein solutions were centrifuged for 10 minutes at 16,000*g and diluted in coat buffer. After coating the plates were washed at least three times with 50 mM Tris-HCl pH 7.3, 150 mM NaCl, 0.1% v/v Tween20, and blocked with Blocking reagent (Roche Diagnostics, Almere, The Netherlands; 11112589001), for 1 h at room temperature, with motion. Plates were washed three times and incubated in triplicate with indicated chaperone dilution series, at 50 μl/well, for 1 h at room temperature, with constant motion. For HSP90, 5 mM DTT is incorporated in the binding buffer (PBS/0.1% Tween20) to avoid unwanted disulfide bond formation of the HSP90. […] After four wash cycles, secondary antibodies were added to the wells when required, 50 μl/well, for 45′ at room temperature, with motion. RAMPO and SWARPO were used at 3000 times dilution. […] In a second experiment with more immobilized misfolded proteins and controls, the detection of bound HSP90 with the mix of two anti-HSP90 antibodies was achieved by mixing 1:1500 SWARPO with 1:3000 RAMPO. After 5 washes with wash buffer followed by two washes with PBS, binding of antibodies was assessed. Bound anti-FLAG-PO, peroxidase-conjugated rabbit anti-mouse immunoglobulins (RAMPO, P0260, DAKOCytomation, Glostrup, Denmark) or peroxidase-coupled swine anti-rabbit immunoglobulins (SWARPO, P0217, DAKOCytomation) was visualized with tetramethylbenzidine (TMB, #45.01.20,/#45.014.01, Biosource, Nivelles, Belgium). The reaction was stopped after 5 minutes with 1% H2SO4 in H2O. Plates were read at 450 nm. Triplicates were averaged and standard deviations calculated. Background signals obtained with buffer-coated wells were subtracted (binding of primary antibody to empty wells), as well as background signals obtained with ligand-coated wells in which the chaperones were omitted (binding of primary and secondary antibody to coated ligands). Subsequently, sub-optimal concentrations of chaperones for binding to misfolded protein ligands are determined, and these concentrations are used for inhibition studies.
In a subsequent study we analysed whether BiP interacts directly with the crossbeta structure, by performing ELISA binding studies with a fixed sub-optimal concentration of BiP and concentration series of crossbeta binding compounds. The results are depicted in FIGS. 12, 13 and Table 7. Binding of BiP without added crossbeta binding compounds was set to 100%.

Substance	# of unique peptides (BiP-Sepharose; Sample 1B)	# of unique peptides (BiP-Sepharose; Sample 3B)	# of unique peptides (BiP-Sepharose; Sample 2B)	other results
Apolipoprotein B-100 precursor	9	12		
Aβ1-40: amyloid-β 1-40 peptide coated in Example 7				Binding of concentration series of BiP to coated ligand (human BiP [1]): has been established
HSPA5 protein/BiP	21	19	12	# of unique peptides (BiP-Sepharose; Sample 4B): 10; # of unique peptides (BiP-Sepharose; Sample 5B): 10; # of unique peptides (BiP-Sepharose; Sample 6B): 17
Haptoglobin precursor	1	3		
Heat shock 70 kDa protein 1L	1	1	1	# of unique peptides (BiP-Sepharose; Sample 5B): 1; # of unique peptides (BiP-Sepharose; Sample 6B): 1
IGHG4 protein, immunoglobulin heavy constant gamma 4	4		1	
IGKV1-5 protein, immunoglobulin kappa variable 1-5	3	5		
Isoform 1 of Fibrinogen alpha chain precursor	3			
KRLEVDIDIK [FP10, synthetic fibrin peptide without crossbeta structure (negative control)]				Binding of concentration series of BiP to coated ligand (human BiP [1]): did not bind
LFWPFEWI [6BB9]				Binding of concentration series of BiP to coated ligand (human BiP [1]): has been established; Influence of Congo red on interaction of BiP with misfolded protein (human BiP [2]; fixed sub-optimal BiP concentration, concentration series of Congo red): ↓ (a ↓ sign refers to inhibited abolished binding of BiP); Influence of ThS on interaction of BiP with misfolded protein (human BiP [2]; fixed sub-optimal BiP concentration, concentration series of ThS): ↓ (a ↓ sign refers to inhibited abolished binding of BiP); Influence of ThT on interaction of BiP with misfolded protein (human BiP [2]; fixed sub-optimal BiP concentration, concentration series of ThT): ↓ (a ↓ sign refers to inhibited abolished binding of BiP)
Serotransferrin precursor				# of unique peptides (BiP-Sepharose; Sample 5B): 1
Thioflavin S [ThS]				Influence on interaction of BiP with misfolded proteins comprising crossbeta structure (summary in words) (human BiP [2]; BiP binding without compound set to 100%): can either potentiate BiP binding, or inhibit
fibronectin 1 isoform 4 preproprotein	10		2	# of unique peptides (BiP-Sepharose; Sample 5B): 2
thrombin				Binding of concentration series of BiP to coated ligand (human BiP [1]): did not bind

Second part, led by results:

# of unique peptides (BiP-Sepharose; Sample 1B)	# of unique peptides (BiP-Sepharose; Sample 3B)	# of unique peptides (BiP-Sepharose; Sample 2B)	Substance	other results
1	1	1	Clusterin precursor	
	1		Ig kappa chain V-IV region Len, immunoglobulin kappa variable 4-1	
	1	1	Neutrophil defensin 1 precursor	
2			Single-chain Fv (Fragment), Ig heavy chain V-III region TRO	
1			Vitronectin precursor	# of unique peptides (BiP-Sepharose; Sample 5B): 2; # of unique peptides (BiP-Sepharose; Sample 6B): 1
